Numbered stars: 1 amine (or outer) side, 2 acyl side, 3 side chain; on linkers, the order of the positions; unused ones are H or OH. Bridge positions count the residues as written; N and C are the ends. Side chains are listed from the residue outwards. Ends that are not written are not given here. * marks the point of attachment. C20 diacid = O=C(O)CCCCCCCCCCCCCCCCCCC(=O)*; γGlu = O=C(O)[C@H](CCC(=O)[*:2])N[*:1]

As a reminder, the IC50 is the concentration at which inhibition is half-maximal.

The labels stand for the following.
T1: human calcitonin receptor (human, UniProt P30988 25-474)
T1 construct: whole, on cells; Assayed as cell membranes of BHK tk'ts 13 cells stably transfected with the human calcitonin receptor (Assay VII); also called hCTR; hCT
T1 sequence (looked up): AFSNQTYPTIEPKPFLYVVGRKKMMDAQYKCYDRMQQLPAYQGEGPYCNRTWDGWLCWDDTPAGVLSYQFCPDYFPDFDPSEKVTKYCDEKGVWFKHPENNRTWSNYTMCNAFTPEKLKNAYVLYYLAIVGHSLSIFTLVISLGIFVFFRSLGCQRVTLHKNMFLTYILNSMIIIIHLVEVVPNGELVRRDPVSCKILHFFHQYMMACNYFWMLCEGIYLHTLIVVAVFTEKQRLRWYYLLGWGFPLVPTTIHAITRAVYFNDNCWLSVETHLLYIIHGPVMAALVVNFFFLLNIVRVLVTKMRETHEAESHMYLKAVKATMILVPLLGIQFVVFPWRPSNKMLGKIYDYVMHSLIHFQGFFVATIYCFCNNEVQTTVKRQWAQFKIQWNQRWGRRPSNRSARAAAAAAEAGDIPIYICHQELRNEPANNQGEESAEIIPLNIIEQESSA

B1: N^ε1-[(4S)-4-carboxy-4-(19-carboxynonadecanoylamino)butanoyl]-[Ala14,Arg17,Pro21,Pro27,Pro34]-h-amylin (peptide)
peptide: K([γGlu-C20 diacid])CNTATCATQRLAAFLRHSSPNFGAIPSSTNVGPNTY-NH2
modifications: disulfide 2-7; N-terminus assumed
SMILES: CC[C@H](C)[C@H](NC(=O)[C@H](C)NC(=O)CNC(=O)[C@H](Cc1ccccc1)NC(=O)[C@H](CC(N)=O)NC(=O)[C@@H]1CCCN1C(=O)[C@H](CO)NC(=O)[C@H](CO)NC(=O)[C@H](Cc1c[nH]cn1)NC(=O)[C@H](CCCNC(=N)N)NC(=O)[C@H](CC(C)C)NC(=O)[C@H](Cc1ccccc1)NC(=O)[C@H](C)NC(=O)[C@H](C)NC(=O)[C@H](CC(C)C)NC(=O)[C@H](CCCNC(=N)N)NC(=O)[C@H](CCC(N)=O)NC(=O)[C@@H](NC(=O)[C@H](C)NC(=O)[C@@H]1CSSC[C@H](NC(=O)[C@@H](N)CCCCNC(=O)CC[C@H](NC(=O)CCCCCCCCCCCCCCCCCCC(=O)O)C(=O)O)C(=O)N[C@@H](CC(N)=O)C(=O)N[C@@H]([C@@H](C)O)C(=O)N[C@@H](C)C(=O)N[C@@H]([C@@H](C)O)C(=O)N1)[C@@H](C)O)C(=O)N1CCC[C@H]1C(=O)N[C@@H](CO)C(=O)N[C@@H](CO)C(=O)N[C@H](C(=O)N[C@@H](CC(N)=O)C(=O)N[C@H](C(=O)NCC(=O)N1CCC[C@H]1C(=O)N[C@@H](CC(N)=O)C(=O)N[C@H](C(=O)N[C@@H](Cc1ccc(O)cc1)C(N)=O)[C@@H](C)O)C(C)C)[C@@H](C)O
notes: also called compound 94
B2: N^ε1-[(4S)-4-carboxy-4-(19-carboxynonadecanoylamino)butanoyl]-[Arg17,Pro21,Pro27,Arg34]-h-amylin (peptide)
peptide: K([γGlu-C20 diacid])CNTATCATQRLANFLRHSSPNFGAIPSSTNVGRNTY-NH2
modifications: disulfide 2-7; N-terminus assumed
SMILES: CC[C@H](C)[C@H](NC(=O)[C@H](C)NC(=O)CNC(=O)[C@H](Cc1ccccc1)NC(=O)[C@H](CC(N)=O)NC(=O)[C@@H]1CCCN1C(=O)[C@H](CO)NC(=O)[C@H](CO)NC(=O)[C@H](Cc1c[nH]cn1)NC(=O)[C@H](CCCNC(=N)N)NC(=O)[C@H](CC(C)C)NC(=O)[C@H](Cc1ccccc1)NC(=O)[C@H](CC(N)=O)NC(=O)[C@H](C)NC(=O)[C@H](CC(C)C)NC(=O)[C@H](CCCNC(=N)N)NC(=O)[C@H](CCC(N)=O)NC(=O)[C@@H](NC(=O)[C@H](C)NC(=O)[C@@H]1CSSC[C@H](NC(=O)[C@@H](N)CCCCNC(=O)CC[C@H](NC(=O)CCCCCCCCCCCCCCCCCCC(=O)O)C(=O)O)C(=O)N[C@@H](CC(N)=O)C(=O)N[C@@H]([C@@H](C)O)C(=O)N[C@@H](C)C(=O)N[C@@H]([C@@H](C)O)C(=O)N1)[C@@H](C)O)C(=O)N1CCC[C@H]1C(=O)N[C@@H](CO)C(=O)N[C@@H](CO)C(=O)N[C@H](C(=O)N[C@@H](CC(N)=O)C(=O)N[C@H](C(=O)NCC(=O)N[C@@H](CCCNC(=N)N)C(=O)N[C@@H](CC(N)=O)C(=O)N[C@H](C(=O)N[C@@H](Cc1ccc(O)cc1)C(N)=O)[C@@H](C)O)C(C)C)[C@@H](C)O
notes: also called compound 79
B3: N^ε1-[(4S)-4-carboxy-4-(19-carboxynonadecanoylamino)butanoyl]-[Arg14,Arg17,Pro21,Pro27,Pro34]-h-amylin (peptide)
peptide: K([γGlu-C20 diacid])CNTATCATQRLARFLRHSSPNFGAIPSSTNVGPNTY-NH2
modifications: disulfide 2-7; N-terminus assumed
SMILES: CC[C@H](C)[C@H](NC(=O)[C@H](C)NC(=O)CNC(=O)[C@H](Cc1ccccc1)NC(=O)[C@H](CC(N)=O)NC(=O)[C@@H]1CCCN1C(=O)[C@H](CO)NC(=O)[C@H](CO)NC(=O)[C@H](Cc1c[nH]cn1)NC(=O)[C@H](CCCNC(=N)N)NC(=O)[C@H](CC(C)C)NC(=O)[C@H](Cc1ccccc1)NC(=O)[C@H](CCCNC(=N)N)NC(=O)[C@H](C)NC(=O)[C@H](CC(C)C)NC(=O)[C@H](CCCNC(=N)N)NC(=O)[C@H](CCC(N)=O)NC(=O)[C@@H](NC(=O)[C@H](C)NC(=O)[C@@H]1CSSC[C@H](NC(=O)[C@@H](N)CCCCNC(=O)CC[C@H](NC(=O)CCCCCCCCCCCCCCCCCCC(=O)O)C(=O)O)C(=O)N[C@@H](CC(N)=O)C(=O)N[C@@H]([C@@H](C)O)C(=O)N[C@@H](C)C(=O)N[C@@H]([C@@H](C)O)C(=O)N1)[C@@H](C)O)C(=O)N1CCC[C@H]1C(=O)N[C@@H](CO)C(=O)N[C@@H](CO)C(=O)N[C@H](C(=O)N[C@@H](CC(N)=O)C(=O)N[C@H](C(=O)NCC(=O)N1CCC[C@H]1C(=O)N[C@@H](CC(N)=O)C(=O)N[C@H](C(=O)N[C@@H](Cc1ccc(O)cc1)C(N)=O)[C@@H](C)O)C(C)C)[C@@H](C)O
notes: also called compound 65
B4: N^ε1-[(4S)-4-carboxy-4-(19-carboxynonadecanoylamino)butanoyl]-[Arg17,Pro21,Pro27,His34]-h-amylin (peptide)
peptide: K([γGlu-C20 diacid])CNTATCATQRLANFLRHSSPNFGAIPSSTNVGHNTY-NH2
modifications: disulfide 2-7; N-terminus assumed
SMILES: CC[C@H](C)[C@H](NC(=O)[C@H](C)NC(=O)CNC(=O)[C@H](Cc1ccccc1)NC(=O)[C@H](CC(N)=O)NC(=O)[C@@H]1CCCN1C(=O)[C@H](CO)NC(=O)[C@H](CO)NC(=O)[C@H](Cc1c[nH]cn1)NC(=O)[C@H](CCCNC(=N)N)NC(=O)[C@H](CC(C)C)NC(=O)[C@H](Cc1ccccc1)NC(=O)[C@H](CC(N)=O)NC(=O)[C@H](C)NC(=O)[C@H](CC(C)C)NC(=O)[C@H](CCCNC(=N)N)NC(=O)[C@H](CCC(N)=O)NC(=O)[C@@H](NC(=O)[C@H](C)NC(=O)[C@@H]1CSSC[C@H](NC(=O)[C@@H](N)CCCCNC(=O)CC[C@H](NC(=O)CCCCCCCCCCCCCCCCCCC(=O)O)C(=O)O)C(=O)N[C@@H](CC(N)=O)C(=O)N[C@@H]([C@@H](C)O)C(=O)N[C@@H](C)C(=O)N[C@@H]([C@@H](C)O)C(=O)N1)[C@@H](C)O)C(=O)N1CCC[C@H]1C(=O)N[C@@H](CO)C(=O)N[C@@H](CO)C(=O)N[C@H](C(=O)N[C@@H](CC(N)=O)C(=O)N[C@H](C(=O)NCC(=O)N[C@@H](Cc1c[nH]cn1)C(=O)N[C@@H](CC(N)=O)C(=O)N[C@H](C(=O)N[C@@H](Cc1ccc(O)cc1)C(N)=O)[C@@H](C)O)C(C)C)[C@@H](C)O
notes: also called compound 77
B5: N^ε1-[(4S)-4-carboxy-4-(19-carboxynonadecanoylamino)butanoyl]-[Arg14,Arg17,Pro21,Pro27]-h-amylin (peptide)
peptide: K([γGlu-C20 diacid])CNTATCATQRLARFLRHSSPNFGAIPSSTNVGSNTY-NH2
modifications: disulfide 2-7; N-terminus assumed
SMILES: CC[C@H](C)[C@H](NC(=O)[C@H](C)NC(=O)CNC(=O)[C@H](Cc1ccccc1)NC(=O)[C@H](CC(N)=O)NC(=O)[C@@H]1CCCN1C(=O)[C@H](CO)NC(=O)[C@H](CO)NC(=O)[C@H](Cc1c[nH]cn1)NC(=O)[C@H](CCCNC(=N)N)NC(=O)[C@H](CC(C)C)NC(=O)[C@H](Cc1ccccc1)NC(=O)[C@H](CCCNC(=N)N)NC(=O)[C@H](C)NC(=O)[C@H](CC(C)C)NC(=O)[C@H](CCCNC(=N)N)NC(=O)[C@H](CCC(N)=O)NC(=O)[C@@H](NC(=O)[C@H](C)NC(=O)[C@@H]1CSSC[C@H](NC(=O)[C@@H](N)CCCCNC(=O)CC[C@H](NC(=O)CCCCCCCCCCCCCCCCCCC(=O)O)C(=O)O)C(=O)N[C@@H](CC(N)=O)C(=O)N[C@@H]([C@@H](C)O)C(=O)N[C@@H](C)C(=O)N[C@@H]([C@@H](C)O)C(=O)N1)[C@@H](C)O)C(=O)N1CCC[C@H]1C(=O)N[C@@H](CO)C(=O)N[C@@H](CO)C(=O)N[C@H](C(=O)N[C@@H](CC(N)=O)C(=O)N[C@H](C(=O)NCC(=O)N[C@@H](CO)C(=O)N[C@@H](CC(N)=O)C(=O)N[C@H](C(=O)N[C@@H](Cc1ccc(O)cc1)C(N)=O)[C@@H](C)O)C(C)C)[C@@H](C)O
notes: also called compound 83
B6: N^ε1-[(4S)-4-carboxy-4-(19-carboxynonadecanoylamino)butanoyl]-[Arg14,Arg17,Pro21,Pro27,Pro31]-h-amylin (peptide)
peptide: K([γGlu-C20 diacid])CNTATCATQRLARFLRHSSPNFGAIPSSTPVGSNTY-NH2
modifications: disulfide 2-7; N-terminus assumed
SMILES: CC[C@H](C)[C@H](NC(=O)[C@H](C)NC(=O)CNC(=O)[C@H](Cc1ccccc1)NC(=O)[C@H](CC(N)=O)NC(=O)[C@@H]1CCCN1C(=O)[C@H](CO)NC(=O)[C@H](CO)NC(=O)[C@H](Cc1c[nH]cn1)NC(=O)[C@H](CCCNC(=N)N)NC(=O)[C@H](CC(C)C)NC(=O)[C@H](Cc1ccccc1)NC(=O)[C@H](CCCNC(=N)N)NC(=O)[C@H](C)NC(=O)[C@H](CC(C)C)NC(=O)[C@H](CCCNC(=N)N)NC(=O)[C@H](CCC(N)=O)NC(=O)[C@@H](NC(=O)[C@H](C)NC(=O)[C@@H]1CSSC[C@H](NC(=O)[C@@H](N)CCCCNC(=O)CC[C@H](NC(=O)CCCCCCCCCCCCCCCCCCC(=O)O)C(=O)O)C(=O)N[C@@H](CC(N)=O)C(=O)N[C@@H]([C@@H](C)O)C(=O)N[C@@H](C)C(=O)N[C@@H]([C@@H](C)O)C(=O)N1)[C@@H](C)O)C(=O)N1CCC[C@H]1C(=O)N[C@@H](CO)C(=O)N[C@@H](CO)C(=O)N[C@H](C(=O)N1CCC[C@H]1C(=O)N[C@H](C(=O)NCC(=O)N[C@@H](CO)C(=O)N[C@@H](CC(N)=O)C(=O)N[C@H](C(=O)N[C@@H](Cc1ccc(O)cc1)C(N)=O)[C@@H](C)O)C(C)C)[C@@H](C)O
notes: also called compound 63

One experiment has as its target T1, human calcitonin receptor. The experiment in a line: IC50 at hCTR divided by IC50 at hAmylin-R (SPA competition assays V and VII). A digest of the protocol: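 Membranes (35 ng/μL final) + SPA beads, 50 mM Hepes pH 7.4 buffer with 1 mM CaCl2, 5 mM MgCl₂, 0.1% OA, 0.02% Tween20; 120 min, 25° C, shaking; centrifuged, counted; IC₅₀ by one-site binding competition.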
On to B1, for which the “Ratio hCT/hAmylin binding” value was 46.3.

B2: the “Ratio hCT/hAmylin binding” value worked out at 46.1.

Take B3: the “Ratio hCT/hAmylin binding” value came out at 82.4.

Consider B4, for which the “Ratio hCT/hAmylin binding” value worked out at 118.

For B5, the “Ratio hCT/hAmylin binding” value is 146.

Regarding B6, the “Ratio hCT/hAmylin binding” value was 157.

In the next experiment the target is T1, human calcitonin receptor. The experiment in a line: SPA competition vs 125I-calcitonin, membranes of BHK cells with human calcitonin receptor (Assay VII). A digest of the protocol: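 BHK hCTR membranes 35 ng/μL + SPA beads 0.05 mg/well; buffer 50 mM Hepes pH 7.4, 1 mM CaCl2, 5 mM MgCl₂, 0.1% OA, 0.02% Tween20. 120 min, 25° C., shaking. Scintillation count; IC50 by one-site binding competition.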
For the molecule B1, the IC50 stood at 6.86 nM.

As for B2, the IC50 came out at 36.4 nM.

For B3, the IC50 stood at 53.5 nM.

Regarding B4, the IC50 came to 50.7 nM.

As for B5, the IC50 was found to be 137 nM.

Regarding B6, the IC50 was 130 nM.
